Experimental data reported in the supplement of paper PMC9732359.
± gives the uncertainty stated by the source.

Test: protein stability index of a GFP-peptide fusion (yeast GPS) (PSI 1-4); higher = more stable; sorted into four equal gates, so the index is relative within each strain
Procedure, shortened: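 Plasmids in a pooled yeast library fused tiled 17-residue yeast protein peptides downstream of GFP and also expressed Cherry. Mid-log cultures grown without leucine were sorted into four equal gates by GFP/Cherry fluorescence ratio. Each gate's plasmids were PCR-amplified and Illumina-sequenced, and reads were matched to strains by barcodes. The protein stability index is derived by multiplying each gate's read frequency by its gate number and summing the results.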

| Sequence | protein stability index (doa10∆) | protein stability index (pdr5∆) | protein stability index (san1∆) | protein stability index (ubr1∆) |
| --- | --- | --- | --- | --- |
| LNRQNDITDGKDYHTLA [RPS18A] | 3.13 ± 0.069 | 3.33 ± 0.061 | 3.27 ± 0.05 | 3.11 ± 0.06 |
| PTHIWNAKRSHMMKRWG [POP1] | 2.35 ± 0.075 | 2.24 ± 0.068 | 1.98 ± 0.12 | 2.26 ± 0.067 |
| PFLHLRKKTPAGDWKYD [FAS2] | 3.2 ± 0.29 | 3.32 ± 0.2 | 2.54 ± 0.24 | 3.08 ± 0.21 |
| SVPLRKGDRALLVKLSK [BRR2] | 2.46 ± 0.17 | 3.33 ± 0.18 | 3.06 ± 0.094 | 2.99 ± 0.15 |
| FHVGFIAKIKKVCECVC [RPO21] | 1.15 ± 0.046 | 1.27 ± 0.064 | 1.43 ± 0.11 | 1.26 ± 0.059 |
| KILMYQYNIPPEREVLV [RRP6] | 1.78 ± 0.075 | 2.04 ± 0.077 | 1.77 ± 0.2 | 1.72 ± 0.087 |
| FDRLNGNDTISKFYNMK [SSN2] | 3.17 ± 0.1 | 3.06 ± 0.082 | 3.19 ± 0.053 | 3.08 ± 0.059 |
| QVRRDIPSAAFNFFEPI [YMR129W/POM152] | 1.9 ± 0.036 | 2.23 ± 0.041 | 1.96 ± 0.049 | 2.15 ± 0.031 |
| DSEIEISSEKLLTLTNA [RPP1A] | 2.99 ± 0.063 | 2.92 ± 0.073 | 2.93 ± 0.061 | 3.12 ± 0.055 |
| VSPNAAPRQEISEEETT [YAR002W/NUP60] | 3.19 ± 0.1 | 2.88 ± 0.077 | 2.9 ± 0.086 | 2.6 ± 0.12 |
| KNKDSLVSNPHEIYGSM [SRB4] | 3.04 ± 0.084 | 3.09 ± 0.09 | 2.96 ± 0.07 | 3.26 ± 0.14 |
| DFDGDEMNLHVPQTEEA [RPO31] | 3.03 ± 0.071 | 3.31 ± 0.068 | 2.99 ± 0.063 | 3.18 ± 0.051 |
| AVNMTQNIMTLPDGKNG [MED6] | 2.79 ± 0.11 | 3.04 ± 0.056 | 2.67 ± 0.059 | 3.07 ± 0.062 |
| IGLDTQQVEGKLSQMIL [RPN6] | 2.95 ± 0.066 | 3.05 ± 0.069 | 3.04 ± 0.071 | 3.06 ± 0.056 |
| PQTMEHYKQQIAVLIEL [YCS4] | 3.01 ± 0.083 | 3.05 ± 0.12 | 2.92 ± 0.11 | 2.52 ± 0.066 |
| QQTAKKLIPKLYRYRFD [ECM29] | 2.24 ± 0.13 | 2.35 ± 0.1 | 2.24 ± 0.14 | 1.21 ± 0.087 |
| KTSKRTKRWYKNAGLGF [RPS11A] | 3.3 ± 0.091 | 2.84 ± 0.12 | 3.17 ± 0.11 | 3.4 ± 0.085 |
| NTNTENENRNTGAGVDV [SNF11] | 2.9 ± 0.062 | 2.98 ± 0.045 | 2.66 ± 0.044 | 2.88 ± 0.044 |
| AVVGQQIISGNRVPDGF [RPO31] |  | 3.28 ± 0.28 | 2.88 ± 0.2 | 2.65 ± 0.13 |
| KTVPFQVNQLQRILEVL [SSN3] | 2.27 ± 0.033 | 2.11 ± 0.031 | 1.63 ± 0.041 | 2.08 ± 0.03 |
| AFGEFSLEGCVEMAWIM [FAS2] | 2.46 ± 0.1 | 2.63 ± 0.12 | 2.48 ± 0.079 | 2.37 ± 0.088 |
| QVATKYASLKLPNQIPG [YMR129W/POM152] | 1.69 ± 0.038 | 1.68 ± 0.041 | 1.67 ± 0.052 | 1.84 ± 0.029 |
| GVNELAPIPKGRVKYTK [POP1] | 3.05 ± 0.08 | 2.87 ± 0.06 | 3.17 ± 0.066 | 2.67 ± 0.069 |
| QLVTREAQIKDWVENEL [FAS2] | 3.44 ± 0.1 | 3.19 ± 0.1 | 3.39 ± 0.065 | 3.11 ± 0.064 |
| KTFKNPKYESLKLEYYN [RPN5] | 2.11 ± 0.083 | 1.49 ± 0.089 | 1.09 ± 0.23 | 1.25 ± 0.058 |
| KDNGMLIIDGQIIFGVV [RPO21] | 1.95 ± 0.12 | 1.79 ± 0.076 | 1.61 ± 0.21 | 2.73 ± 0.12 |
| QKQLPQKTRVKLLFDHD [ESC2] | 2.86 ± 0.057 | 2.93 ± 0.05 | 3.03 ± 0.039 | 3 ± 0.039 |

| Sequence | protein stability index (doa10∆) | protein stability index (pdr5∆) | protein stability index (san1∆) | protein stability index (ubr1∆) |
| --- | --- | --- | --- | --- |
| KTLKRMIKESSTANPNI [POP1] | 2.54 ± 0.1 | 2.76 ± 0.091 | 2.28 ± 0.092 | 2.67 ± 0.054 |
| VSIDIEEPQLDLLDDVL [MTW1] | 2.62 ± 0.094 | 3.09 ± 0.067 | 3.24 ± 0.045 | 3.19 ± 0.048 |
| LKRISDGLSFGKGESVI [SIR3] | 3.21 ± 0.28 |  | 3.33 ± 0.099 | 3.76 ± 0.19 |
| LARGLRESTKALTRGEA [RPS12] | 3.28 ± 0.14 | 3.65 ± 0.12 | 2.94 ± 0.24 | 3.37 ± 0.044 |
| DHIAIDWEDEEKYEDED [DSN1] | 2.52 ± 0.15 | 2.86 ± 0.12 | 2.55 ± 0.09 | 2.12 ± 0.08 |
| SDELHNQSTIYEDEELS [LIN1] | 3 ± 0.079 | 2.87 ± 0.098 | 3.11 ± 0.07 | 2.97 ± 0.077 |
| SCSFFAKLSDTLIIDQV [NUT1] | 2.22 ± 0.052 | 1.79 ± 0.051 | 2.06 ± 0.11 | 1.91 ± 0.039 |
| SNVYLSLVNSYIIDSPQ [COB] | 1.76 ± 0.047 | 1.81 ± 0.056 | 2.24 ± 0.071 | 1.71 ± 0.052 |
| TSRVFAKIISKAPEQFI [YML103C/NUP188] |  | 3.08 ± 0.14 |  |  |
| LDKVINKELPINHTILG [RPN8] | 2.19 ± 0.077 | 2.27 ± 0.08 | 1.67 ± 0.13 | 2.4 ± 0.055 |
| TIKVAGTPLLEVRGQVP [SNU114] | 2.67 ± 0.08 | 2.69 ± 0.067 | 2.94 ± 0.063 | 2.98 ± 0.069 |
| SFDAVSDSIELLKQYPK [YJR042W/NUP85] | 2.86 ± 0.083 | 3.16 ± 0.085 | 2.56 ± 0.11 | 2.59 ± 0.087 |
| QANIQLYSIREDYELSP [PRE1] | 2.96 ± 0.1 | 2.82 ± 0.093 | 3.01 ± 0.074 | 3.46 ± 0.11 |
| TLAITTVTNSKFRSSIL [RPN2] | 2.19 ± 0.046 | 2.3 ± 0.047 | 2.17 ± 0.054 | 2.52 ± 0.045 |
| EDKFLYGDGNGKGDNDN [SWI3] | 3.48 ± 0.24 | 3.35 ± 0.16 | 3.4 ± 0.08 | 3.42 ± 0.15 |
| QNSKEKNGLGLNFSTTA [MED2] | 2.9 ± 0.11 | 3.13 ± 0.064 | 2.94 ± 0.056 | 2.99 ± 0.089 |
| PVYTAQWSATWIAMRRE [PRP8] | 1.68 ± 0.079 | 1.96 ± 0.063 | 1.97 ± 0.089 | 1.9 ± 0.067 |
| PADSTYGAYNTQIANAG [PRE4] | 1.8 ± 0.097 | 2.03 ± 0.067 | 2.08 ± 0.15 | 1.69 ± 0.049 |
| GPANNPNEFMQFKSKEV [PRP8] | 3.1 ± 0.11 | 3.31 ± 0.083 | 3.19 ± 0.044 | 3.43 ± 0.11 |
| DYLKNIIVENSGTSGDE [RPN2] | 3.43 ± 0.21 | 3.48 ± 0.15 | 3.14 ± 0.057 | 3.29 ± 0.1 |
| DAHGVTQARVITGNKIM [RPS13] | 2.21 ± 0.088 | 1.61 ± 0.071 | 1.22 ± 0.12 | 1.56 ± 0.062 |
| QELKLTCVAKKGIAKEH [RPB3] | 3.09 ± 0.23 | 3.18 ± 0.13 | 2.92 ± 0.1 | 2.96 ± 0.095 |
| LNTLFNPVTLNEDSKAF [NUT1] | 2.57 ± 0.062 | 1.84 ± 0.057 | 1.65 ± 0.091 | 1.92 ± 0.043 |
| HFPINVNIVEKDGAKFI [RPL9A] | 2.58 ± 0.069 | 2.57 ± 0.079 | 2.53 ± 0.065 | 2.5 ± 0.07 |
| DENKDDELVKLLLDNGF [SRP68] | 3.05 ± 0.11 | 3.4 ± 0.086 | 3.36 ± 0.12 | 3.31 ± 0.094 |
| GSGVDSSKLQLTKKYSF [RRP42] | 2.67 ± 0.12 | 2.8 ± 0.062 | 1.55 ± 0.12 | 2.83 ± 0.071 |
